{"source": "patent US6087166", "test_in_all_cases": "cell_activity", "key": {"[1]": {"system": "TetR-FFF (tTA2) (/ HSV fusion)", "conditions": "relative to tTA; -Tc 259556, +Tc 33"}, "[2]": {"system": "TetR-FFFF (tTA1) (/ HSV fusion)", "conditions": "relative to tTA; -Tc 607264, +Tc 33"}, "[3]": {"system": "TetR-GFY (tTA4) (/ HSV fusion)", "conditions": "relative to tTA; -Tc 37217, +Tc 25"}, "[4]": {"system": "TetR-FG (tTA7) (/ HSV fusion)", "conditions": "relative to tTA; -Tc 88, +Tc 24"}, "[5]": {"system": "TetR-GF (tTA6) (/ HSV fusion)", "conditions": "relative to tTA; -Tc 1500, +Tc 28"}, "[6]": {"system": "TetR-FGY (tTA5) (/ HSV fusion)", "conditions": "relative to tTA; -Tc 12080, +Tc 16"}, "[7]": {"system": "TetR-FF (tTA3) (/ HSV fusion)", "conditions": "relative to tTA; -Tc 102828, +Tc 27"}, "[8]": {"system": "TetR-VP16 (tTA) (/ HSV fusion)", "conditions": "luciferase -Tc 265410, +Tc 20"}}, "data": [{"substance": "PhCMV*-1 promoter (tet operators, luciferase reporter in HeLa X1/6)", "values": [{"measurement": "activity", "setting": "[1]", "value": 98, "unit": "%"}, {"measurement": "activity", "setting": "[2]", "value": 230, "unit": "%"}, {"measurement": "activity", "setting": "[3]", "value": 14, "unit": "%"}, {"measurement": "activity", "setting": "[4]", "value": 0.03, "unit": "%"}, {"measurement": "activity", "setting": "[5]", "value": 0.6, "unit": "%"}, {"measurement": "activity", "setting": "[6]", "value": 4.6, "unit": "%"}, {"measurement": "activity", "setting": "[7]", "value": 39, "unit": "%"}, {"measurement": "activity", "setting": "[8]", "value": 100, "unit": "%"}]}]}
